This passage reports cAMP EC50 (assay 1) results from patent US20190185537A1 (AstraZeneca / MedImmune, published 2019).

Numbered stars: 1 amine (or outer) side, 2 acyl side, 3 side chain; on linkers, the order of the positions; unused ones are H or OH. Side chains are listed from the residue outwards. Ends that are not written are not given here. * marks the point of attachment. γGlu = O=C(O)[C@H](CCC(=O)[*:2])N[*:1]; Palmitoyl = CCCCCCCCCCCCCCCC(=O)*; Ahx = NCCCCCC(=O)O; βAla = NCCC(=O)O

T1: human glucose-dependent insulinotropic peptide (gastric inhibitory polypeptide) receptor (human) (UniProt P48546)
T1 sequence (looked up): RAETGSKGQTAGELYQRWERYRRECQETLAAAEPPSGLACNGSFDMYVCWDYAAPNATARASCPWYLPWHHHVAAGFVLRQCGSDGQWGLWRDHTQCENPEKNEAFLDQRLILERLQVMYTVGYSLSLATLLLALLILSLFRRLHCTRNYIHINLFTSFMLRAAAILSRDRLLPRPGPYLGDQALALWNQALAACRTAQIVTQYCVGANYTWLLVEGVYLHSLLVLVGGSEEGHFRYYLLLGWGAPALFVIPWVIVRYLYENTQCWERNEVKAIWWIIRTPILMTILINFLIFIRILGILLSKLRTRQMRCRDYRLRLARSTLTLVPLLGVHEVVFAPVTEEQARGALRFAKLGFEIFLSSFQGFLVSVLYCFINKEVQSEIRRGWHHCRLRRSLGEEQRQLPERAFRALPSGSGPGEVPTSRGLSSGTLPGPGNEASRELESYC

B1: g727 (peptide)
peptide: HGQGTFTSDYSEYLDSK([Ahx-Palmitoyl])RARDFVAWLERGG-OH
modifications: N-terminus assumed
SMILES: CCCCCCCCCCCCCCCC(=O)NCCCCCC(=O)NCCCC[C@H](NC(=O)[C@H](CO)NC(=O)[C@H](CC(=O)O)NC(=O)[C@H](CC(C)C)NC(=O)[C@H](Cc1ccc(O)cc1)NC(=O)[C@H](CCC(=O)O)NC(=O)[C@H](CO)NC(=O)[C@H](Cc1ccc(O)cc1)NC(=O)[C@H](CC(=O)O)NC(=O)[C@H](CO)NC(=O)[C@@H](NC(=O)[C@H](Cc1ccccc1)NC(=O)[C@@H](NC(=O)CNC(=O)[C@H](CCC(N)=O)NC(=O)CNC(=O)[C@@H](N)Cc1c[nH]cn1)[C@@H](C)O)[C@@H](C)O)C(=O)N[C@@H](CCCNC(=N)N)C(=O)N[C@@H](C)C(=O)N[C@@H](CCCNC(=N)N)C(=O)N[C@@H](CC(=O)O)C(=O)N[C@@H](Cc1ccccc1)C(=O)N[C@H](C(=O)N[C@@H](C)C(=O)N[C@@H](Cc1c[nH]c2ccccc12)C(=O)N[C@@H](CC(C)C)C(=O)N[C@@H](CCC(=O)O)C(=O)N[C@@H](CCCNC(=N)N)C(=O)NCC(=O)NCC(=O)O)C(C)C
B2: g725 (peptide)
peptide: HGEGTFTSDYSEYLDSK([Ahx-Palmitoyl])RAADFVAWLERGG-NH2
modifications: N-terminus assumed
SMILES: CCCCCCCCCCCCCCCC(=O)NCCCCCC(=O)NCCCC[C@H](NC(=O)[C@H](CO)NC(=O)[C@H](CC(=O)O)NC(=O)[C@H](CC(C)C)NC(=O)[C@H](Cc1ccc(O)cc1)NC(=O)[C@H](CCC(=O)O)NC(=O)[C@H](CO)NC(=O)[C@H](Cc1ccc(O)cc1)NC(=O)[C@H](CC(=O)O)NC(=O)[C@H](CO)NC(=O)[C@@H](NC(=O)[C@H](Cc1ccccc1)NC(=O)[C@@H](NC(=O)CNC(=O)[C@H](CCC(=O)O)NC(=O)CNC(=O)[C@@H](N)Cc1c[nH]cn1)[C@@H](C)O)[C@@H](C)O)C(=O)N[C@@H](CCCNC(=N)N)C(=O)N[C@@H](C)C(=O)N[C@@H](C)C(=O)N[C@@H](CC(=O)O)C(=O)N[C@@H](Cc1ccccc1)C(=O)N[C@H](C(=O)N[C@@H](C)C(=O)N[C@@H](Cc1c[nH]c2ccccc12)C(=O)N[C@@H](CC(C)C)C(=O)N[C@@H](CCC(=O)O)C(=O)N[C@@H](CCCNC(=N)N)C(=O)NCC(=O)NCC(N)=O)C(C)C
B3: g721 (peptide)
peptide: HGQGTFTSDYSEYLDSK([γGlu-Palmitoyl])RARDFVAWLERGG-NH2
modifications: N-terminus assumed
SMILES: CCCCCCCCCCCCCCCC(=O)N[C@@H](CCC(=O)NCCCC[C@H](NC(=O)[C@H](CO)NC(=O)[C@H](CC(=O)O)NC(=O)[C@H](CC(C)C)NC(=O)[C@H](Cc1ccc(O)cc1)NC(=O)[C@H](CCC(=O)O)NC(=O)[C@H](CO)NC(=O)[C@H](Cc1ccc(O)cc1)NC(=O)[C@H](CC(=O)O)NC(=O)[C@H](CO)NC(=O)[C@@H](NC(=O)[C@H](Cc1ccccc1)NC(=O)[C@@H](NC(=O)CNC(=O)[C@H](CCC(N)=O)NC(=O)CNC(=O)[C@@H](N)Cc1c[nH]cn1)[C@@H](C)O)[C@@H](C)O)C(=O)N[C@@H](CCCNC(=N)N)C(=O)N[C@@H](C)C(=O)N[C@@H](CCCNC(=N)N)C(=O)N[C@@H](CC(=O)O)C(=O)N[C@@H](Cc1ccccc1)C(=O)N[C@H](C(=O)N[C@@H](C)C(=O)N[C@@H](Cc1c[nH]c2ccccc12)C(=O)N[C@@H](CC(C)C)C(=O)N[C@@H](CCC(=O)O)C(=O)N[C@@H](CCCNC(=N)N)C(=O)NCC(=O)NCC(N)=O)C(C)C)C(=O)O
B4: g726 (peptide)
peptide: HGEGTFTSDYSEYLDSK([Ahx-Palmitoyl])RARDFVEWLERGG-NH2
modifications: N-terminus assumed
SMILES: CCCCCCCCCCCCCCCC(=O)NCCCCCC(=O)NCCCC[C@H](NC(=O)[C@H](CO)NC(=O)[C@H](CC(=O)O)NC(=O)[C@H](CC(C)C)NC(=O)[C@H](Cc1ccc(O)cc1)NC(=O)[C@H](CCC(=O)O)NC(=O)[C@H](CO)NC(=O)[C@H](Cc1ccc(O)cc1)NC(=O)[C@H](CC(=O)O)NC(=O)[C@H](CO)NC(=O)[C@@H](NC(=O)[C@H](Cc1ccccc1)NC(=O)[C@@H](NC(=O)CNC(=O)[C@H](CCC(=O)O)NC(=O)CNC(=O)[C@@H](N)Cc1c[nH]cn1)[C@@H](C)O)[C@@H](C)O)C(=O)N[C@@H](CCCNC(=N)N)C(=O)N[C@@H](C)C(=O)N[C@@H](CCCNC(=N)N)C(=O)N[C@@H](CC(=O)O)C(=O)N[C@@H](Cc1ccccc1)C(=O)N[C@H](C(=O)N[C@@H](CCC(=O)O)C(=O)N[C@@H](Cc1c[nH]c2ccccc12)C(=O)N[C@@H](CC(C)C)C(=O)N[C@@H](CCC(=O)O)C(=O)N[C@@H](CCCNC(=N)N)C(=O)NCC(=O)NCC(N)=O)C(C)C
B5: g724 (peptide)
peptide: HGEGTFTSDYSEYLDSK([Ahx-Palmitoyl])RARDFVAWLERGG-NH2
modifications: N-terminus assumed
SMILES: CCCCCCCCCCCCCCCC(=O)NCCCCCC(=O)NCCCC[C@H](NC(=O)[C@H](CO)NC(=O)[C@H](CC(=O)O)NC(=O)[C@H](CC(C)C)NC(=O)[C@H](Cc1ccc(O)cc1)NC(=O)[C@H](CCC(=O)O)NC(=O)[C@H](CO)NC(=O)[C@H](Cc1ccc(O)cc1)NC(=O)[C@H](CC(=O)O)NC(=O)[C@H](CO)NC(=O)[C@@H](NC(=O)[C@H](Cc1ccccc1)NC(=O)[C@@H](NC(=O)CNC(=O)[C@H](CCC(=O)O)NC(=O)CNC(=O)[C@@H](N)Cc1c[nH]cn1)[C@@H](C)O)[C@@H](C)O)C(=O)N[C@@H](CCCNC(=N)N)C(=O)N[C@@H](C)C(=O)N[C@@H](CCCNC(=N)N)C(=O)N[C@@H](CC(=O)O)C(=O)N[C@@H](Cc1ccccc1)C(=O)N[C@H](C(=O)N[C@@H](C)C(=O)N[C@@H](Cc1c[nH]c2ccccc12)C(=O)N[C@@H](CC(C)C)C(=O)N[C@@H](CCC(=O)O)C(=O)N[C@@H](CCCNC(=N)N)C(=O)NCC(=O)NCC(N)=O)C(C)C

Chain of human GLP-1 receptor (P43220 24-463): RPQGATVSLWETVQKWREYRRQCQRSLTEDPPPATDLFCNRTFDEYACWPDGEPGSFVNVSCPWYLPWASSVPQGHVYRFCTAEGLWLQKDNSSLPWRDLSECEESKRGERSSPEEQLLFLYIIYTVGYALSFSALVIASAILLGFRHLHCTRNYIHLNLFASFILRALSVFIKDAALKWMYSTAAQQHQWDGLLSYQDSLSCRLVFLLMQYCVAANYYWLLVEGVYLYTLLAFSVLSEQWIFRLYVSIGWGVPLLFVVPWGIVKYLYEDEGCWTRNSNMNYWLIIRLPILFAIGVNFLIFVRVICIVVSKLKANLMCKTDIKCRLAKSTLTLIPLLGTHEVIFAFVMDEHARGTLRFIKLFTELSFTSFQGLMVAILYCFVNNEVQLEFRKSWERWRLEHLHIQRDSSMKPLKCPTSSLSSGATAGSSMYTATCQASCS
Chain of human glucagon receptor (P47871 26-477): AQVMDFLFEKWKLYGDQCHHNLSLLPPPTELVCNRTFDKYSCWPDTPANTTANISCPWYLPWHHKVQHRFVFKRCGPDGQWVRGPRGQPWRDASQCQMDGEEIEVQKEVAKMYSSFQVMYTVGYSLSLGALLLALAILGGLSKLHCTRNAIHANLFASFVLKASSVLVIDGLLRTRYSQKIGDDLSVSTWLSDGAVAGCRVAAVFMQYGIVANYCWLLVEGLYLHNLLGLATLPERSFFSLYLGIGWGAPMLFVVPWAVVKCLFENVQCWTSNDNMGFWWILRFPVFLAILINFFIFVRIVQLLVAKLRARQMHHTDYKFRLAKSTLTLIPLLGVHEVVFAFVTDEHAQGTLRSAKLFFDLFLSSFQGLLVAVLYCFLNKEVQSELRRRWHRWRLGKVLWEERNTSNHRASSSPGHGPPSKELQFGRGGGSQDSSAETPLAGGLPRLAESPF

One experiment addresses human glucagon receptor (human, UniProt P47871 26-477). As to the kind of experiment: cell-based or functional assay.
Turning to HSQGTFTSDYSKYLDSRRAQDFVQWLVAGGSSGGSS-NH2 [g316], the cAMP EC50 (assay 1) is 0.0106 nM.

Molecule B1 returned a cAMP EC50 (assay 1) of 0.218 nM.

In turn, B2 registered a cAMP EC50 (assay 1) of 59.9 nM.

In turn, B3 showed a cAMP EC50 (assay 1) of 3.23 nM.

The molecule HSQGTFTSDYSEYLDSK([Ahx-Palmitoyl])RAADFVAWLERGG-NH2 (not fully specified) [g818] came in with a cAMP EC50 (assay 1) of 0.0089 nM.

In turn, HSQGTFTSDYSEYLDSK([Ahx-Palmitoyl])RARDFVAWLERGG-NH2 (not fully specified) [g794] came in with a cAMP EC50 (assay 1) of 0.00469 nM.

As to B4, the cAMP EC50 (assay 1) came out at 13.1 nM.

HSQGTFTSDYSEYLDSK([βAla-Palmitoyl])RARDFVAWLERGG-NH2 (not fully specified) [g795]: the cAMP EC50 (assay 1) is 0.11 nM.

The molecule HSQGTFTSDYSKYLDSRRAQDFVQWLVAGGGGGG-NH2 [g315] had a cAMP EC50 (assay 1) of 0.00504 nM.

The molecule B5 gave a cAMP EC50 (assay 1) of 30.9 nM.

Molecule HSQGTFTSDYSEYLDSK([Ahx-Palmitoyl])RARDFVAWLERGG-OH (not fully specified) [g826] showed a cAMP EC50 (assay 1) of 0.00423 nM.

On to HSQGTFTSDYSKYLDSRAAQK([Ahx-Palmitoyl])FVQWLERGG-NH2 (not fully specified) [g806], for which the cAMP EC50 (assay 1) is 0.0099 nM.

On to HSQGTFTSDYSEYLDSK([γGlu-Palmitoyl])RARDFVAWLERGG-NH2 (not fully specified) [g772], for which the cAMP EC50 (assay 1) came to 0.184 nM.

HSQGTFTSDYSEYLDSK([Ahx-Palmitoyl])RARDFVEWLERGG-NH2 (not fully specified) [g771] registered a cAMP EC50 (assay 1) of 0.00551 nM.

The next experiment concerns the target human GLP-1 receptor (human, UniProt P43220 24-463). Kind of experiment: cell-based or functional assay.
In turn, HSQGTFTSDYSKYLDSRRAQDFVQWLVAGGSSGGSS-NH2 [g316] displayed a cAMP EC50 (assay 1) of 0.0314 nM.

Consider B1, for which the cAMP EC50 (assay 1) worked out at 0.0263 nM.

Molecule B2 registered a cAMP EC50 (assay 1) of 0.0252 nM.

Consider B3, for which the cAMP EC50 (assay 1) is 0.411 nM.

Molecule HSQGTFTSDYSEYLDSK([Ahx-Palmitoyl])RAADFVAWLERGG-NH2 (not fully specified) [g818] gave a cAMP EC50 (assay 1) of 0.021 nM.

In the case of HSQGTFTSDYSEYLDSK([Ahx-Palmitoyl])RARDFVAWLERGG-NH2 (not fully specified) [g794], the cAMP EC50 (assay 1) came to 0.0157 nM.

As for B4, the cAMP EC50 (assay 1) is 0.00791 nM.

The molecule HSQGTFTSDYSEYLDSK([βAla-Palmitoyl])RARDFVAWLERGG-NH2 (not fully specified) [g795] gave a cAMP EC50 (assay 1) of 0.0734 nM.

HSQGTFTSDYSKYLDSRRAQDFVQWLVAGGGGGG-NH2 [g315] displayed a cAMP EC50 (assay 1) of 0.0273 nM.

In turn, B5 gave a cAMP EC50 (assay 1) of 0.019 nM.

Take HSQGTFTSDYSEYLDSK([Ahx-Palmitoyl])RARDFVAWLERGG-OH (not fully specified) [g826]: the cAMP EC50 (assay 1) worked out at 0.0293 nM.

HSQGTFTSDYSKYLDSRAAQK([Ahx-Palmitoyl])FVQWLERGG-NH2 (not fully specified) [g806] came in with a cAMP EC50 (assay 1) of 0.171 nM.

Turning to HSQGTFTSDYSEYLDSK([γGlu-Palmitoyl])RARDFVAWLERGG-NH2 (not fully specified) [g772], the cAMP EC50 (assay 1) was determined as 0.292 nM.

Molecule HSQGTFTSDYSEYLDSK([Ahx-Palmitoyl])RARDFVEWLERGG-NH2 (not fully specified) [g771] came in with a cAMP EC50 (assay 1) of 0.0175 nM.

For the next experiment, the target named is T1, human glucose-dependent insulinotropic peptide (gastric inhibitory polypeptide) receptor (human). Kind of experiment: cell-based or functional assay.
HSQGTFTSDYSKYLDSRRAQDFVQWLVAGGSSGGSS-NH2 [g316] came in with a cAMP EC50 (assay 1) of 3.65 nM.

In the case of B1, the cAMP EC50 (assay 1) turned out to be 177 nM.

Molecule B2 had a cAMP EC50 (assay 1) of 1480 nM.

Molecule B3 displayed a cAMP EC50 (assay 1) of 979 nM.

On to HSQGTFTSDYSEYLDSK([Ahx-Palmitoyl])RAADFVAWLERGG-NH2 (not fully specified) [g818], for which the cAMP EC50 (assay 1) turned out to be 94 nM.

As to HSQGTFTSDYSEYLDSK([Ahx-Palmitoyl])RARDFVAWLERGG-NH2 (not fully specified) [g794], the cAMP EC50 (assay 1) amounted to 32.2 nM.

Take B4: the cAMP EC50 (assay 1) is 215 nM.

For the molecule HSQGTFTSDYSEYLDSK([βAla-Palmitoyl])RARDFVAWLERGG-NH2 (not fully specified) [g795], the cAMP EC50 (assay 1) came to 579 nM.

Regarding HSQGTFTSDYSKYLDSRRAQDFVQWLVAGGGGGG-NH2 [g315], the cAMP EC50 (assay 1) amounted to 19.7 nM.

In turn, B5 displayed a cAMP EC50 (assay 1) of 933 nM.

HSQGTFTSDYSEYLDSK([Ahx-Palmitoyl])RARDFVAWLERGG-OH (not fully specified) [g826] yielded a cAMP EC50 (assay 1) of 58 nM.

Consider HSQGTFTSDYSKYLDSRAAQK([Ahx-Palmitoyl])FVQWLERGG-NH2 (not fully specified) [g806], for which the cAMP EC50 (assay 1) stood at 105 nM.

In turn, HSQGTFTSDYSEYLDSK([γGlu-Palmitoyl])RARDFVAWLERGG-NH2 (not fully specified) [g772] displayed a cAMP EC50 (assay 1) of 1540 nM.

HSQGTFTSDYSEYLDSK([Ahx-Palmitoyl])RARDFVEWLERGG-NH2 (not fully specified) [g771] showed a cAMP EC50 (assay 1) of 37.1 nM.
